In patent publication US20060062783A1 (Amgen, published 2006):

How the values were obtained:
[1] = molecular target: T1, Human PTH (1-34) (human, not fully specified); assay: BiaCore, 37° C., 34mer
T1 construct: Synthetic peptide bought from Bachem; also called hPTH (1-34); human 34mer
T1 peptide: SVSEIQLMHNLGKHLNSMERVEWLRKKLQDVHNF

[2] = molecular target: T1, Human PTH (1-34); assay: BiaCore, 25° C., 34mer
[3] = molecular target: T2, Human PTH (18-48) (human); assay: ELISA on coated peptide; B cell supernatant
T2 construct: Synthetic peptide bought from Bachem; also called hPTH18-48; 18-48mer
T2 peptide: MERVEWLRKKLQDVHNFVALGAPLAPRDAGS

[4] = molecular target: T3, Rat PTH (1-84) (rat); assay: ELISA on coated peptide; B cell supernatant
T3 construct: Synthetic peptide bought from Bachem; also called Rat 84mer
T3 peptide: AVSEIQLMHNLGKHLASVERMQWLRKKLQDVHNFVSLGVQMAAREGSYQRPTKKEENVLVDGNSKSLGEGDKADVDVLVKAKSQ

[5] = molecular target: T4, Human PTH (1-84) (human); assay: ELISA on coated peptide; B cell supernatant
T4 construct: Synthetic peptide bought from Bachem; also called hPTH1-84; Hu 84mer
T4 peptide: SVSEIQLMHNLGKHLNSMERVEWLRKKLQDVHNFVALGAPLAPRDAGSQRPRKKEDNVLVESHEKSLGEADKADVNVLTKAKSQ

[6] = molecular target: T4, Human PTH (1-84); assay: BiaCore, 37° C., 84mer
[7] = molecular target: T5, PTH 20-28 peptide RAEWLRKKL; assay: alanine-scanning peptide array
T5 construct: Alanine variant; the entry already holds the change
T5 peptide: RAEWLRKKL

[8] = molecular target: T6, PTH 20-28 peptide RVEWLRAKL; assay: alanine-scanning peptide array
T6 construct: Alanine variant; the entry already holds the change
T6 peptide: RVEWLRAKL

[9] = molecular target: T7, PTH peptide RVEWLRKKL (amino acids 20-28, wild type); assay: alanine-scanning peptide array
T7 construct: Peptide on a custom peptide array; also called wild-type peptide
T7 peptide: RVEWLRKKL

[10] = molecular target: T8, PTH 20-28 peptide RVEWARKKL; assay: alanine-scanning peptide array
T8 construct: Alanine variant; the entry already holds the change
T8 peptide: RVEWARKKL

[11] = molecular target: T9, PTH 20-28 peptide RVEALRKKL; assay: alanine-scanning peptide array
T9 construct: Alanine variant; the entry already holds the change
T9 peptide: RVEALRKKL

[12] = molecular target: T10, PTH 20-28 peptide RVEWLAKKL; assay: alanine-scanning peptide array
T10 construct: Alanine variant; the entry already holds the change
T10 peptide: RVEWLAKKL

[13] = molecular target: T11, PTH 20-28 peptide AVEWLRKKL; assay: alanine-scanning peptide array
T11 construct: Alanine variant; the entry already holds the change
T11 peptide: AVEWLRKKL

[14] = molecular target: T12, PTH 20-28 peptide RVEWLRKKA; assay: alanine-scanning peptide array
T12 construct: Alanine variant; the entry already holds the change
T12 peptide: RVEWLRKKA

[15] = molecular target: T13, PTH 20-28 peptide RVEWLRKAL; assay: alanine-scanning peptide array
T13 construct: Alanine variant; the entry already holds the change
T13 peptide: RVEWLRKAL

[16] = molecular target: T14, PTH 20-28 peptide RVAWLRKKL; assay: alanine-scanning peptide array
T14 construct: Alanine variant; the entry already holds the change
T14 peptide: RVAWLRKKL

[17] = molecular target: T15, endogenous human PTH in pooled serum from hemodialysis patients (human, UniProt P01270 32-115, limits assumed); assay: immunoassay-based Scatchard analysis in pooled serum of hemodialysis patients
T15 construct: Circulating hormone; may be a mix of intact PTH and fragments
T15 sequence (looked up): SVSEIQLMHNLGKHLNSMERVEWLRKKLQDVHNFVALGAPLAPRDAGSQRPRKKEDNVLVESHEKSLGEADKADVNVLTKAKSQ

[18] = molecular target: T1, Human PTH (1-34); assay: cell-based or functional assay
[19] = molecular target: T1, Human PTH (1-34); assay: KinExA, solution equilibrium, room temperature
From the text: (§1) Kinetic analysis. […] This method involves solution-based determination of formal affinity measurements at equilibrium. Dual curve analysis with two known antibody concentrations and unknown antigen concentration was used to determine the KD measurements on human 34mer, human 84mer, cynomolgus 84mer and rat 84mer.

[20] = molecular target: T16, Cynomolgus PTH (1-84) (cynomolgus); assay: KinExA, solution equilibrium, room temperature
T16 construct: Synthetic peptide (CS Bio Company for the KinExA measurement and the monkey study); also called cynoPTH (1-84); cynomolgus 84mer
T16 peptide: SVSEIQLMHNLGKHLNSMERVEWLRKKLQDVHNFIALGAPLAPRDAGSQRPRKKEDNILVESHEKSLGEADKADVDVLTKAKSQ
From the text: as §1

[21] = molecular target: T3, Rat PTH (1-84); assay: KinExA, solution equilibrium, room temperature
From the text: as §1

[22] = molecular target: T4, Human PTH (1-84); assay: KinExA, solution equilibrium, room temperature
From the text: as §1

[23] = molecular target: T1, Human PTH (1-34); assay: cell-based or functional assay
[24] = molecular target: T17, Human PTH-related peptide (1-34) (human); assay: indirect: competition ELISA on biotinylated human PTH 1-34
T17 construct: Synthetic peptide bought from Bachem; also called PTH-related protein 1-34; PTHrP
Method: Biotinylated human PTH 1-34 was bound to streptavidin plates at 1 μg/mL for 30 minutes at RT. The plates were washed 5 times with dH2O. […] The titrated antibody was then transferred to the plate coated with human PTH 1-34 and allowed to bind for 1 hour at RT. After washing the plates 5 times with dH2O, 50 μL of Gt anti-Human (Fc)-HRP at 1 μg/mL was added to each well and the plates held 1 hour at RT. After washing the plates 5 times with dH2O, 50 μL of TMB substrate was added to each well. To stop the reaction, 50 μL of 1M phosphoric acid was added to each well. The plates were read at wavelength 450 nm.

[25] = molecular target: T18, Human PTH (7-84) (human); assay: ELISA on coated peptide; B cell supernatant
T18 construct: Synthetic peptide bought from Bachem; also called hPTH7-84; 7-84mer
T18 peptide: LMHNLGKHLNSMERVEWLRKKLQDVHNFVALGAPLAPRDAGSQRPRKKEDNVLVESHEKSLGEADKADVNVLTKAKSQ

T17 sequence (peptide, as listed by the source): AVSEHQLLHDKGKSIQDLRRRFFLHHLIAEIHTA

B1: anti-PTH mAb 026 (antibody, IgG2, V domains shown)
VH: QVQLVESGGGVVQPGRSLRLSCAASGFTFSSYGMHWVRQAPGKGLDWVAVISYDGSNKFYADSVKGRFTISRDNSKNTLYLQMNSLRAEDTAVYYCARDHWELLDYWGQGTLVTVSS
VL: DIVMTQTPLSLSVTPGQPASISCKSSQSLLDSDGKTYLYWYLQRSGQPPQLLIHEVSNRFSGVPYRFIGSGSGTDFTLKISRVEAEDVGAYYCMQGKQFPFIFGPGTKVDIK
notes: also called AB-PTH-XG2-026; well 126B1
Kd [1]: 9.5 nM | Kd [2]: 3 nM

B2: anti-PTH mAb 011 (antibody, IgG2, V domains shown)
VH: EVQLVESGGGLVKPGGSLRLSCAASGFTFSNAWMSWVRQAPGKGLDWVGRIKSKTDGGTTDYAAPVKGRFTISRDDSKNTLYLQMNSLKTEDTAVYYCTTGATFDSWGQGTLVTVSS
VL: DIVMTQSPLSLPVTPGEPASISCRSSQSLLHSNGYKFLDWFLQKPGQSPQLLIYLGSYRASGVPDRFSGRGSGTDFTLKISRVEAEDVGVYYCMQALQTPWTFGQGTKVEIK
notes: also called AB-PTH-XG2-011; well 133A8
Kd [1]: 3.5 nM | Kd [2]: 1 nM

B3: anti-PTH mAb 262 (antibody, IgG2, V domains shown)
VH: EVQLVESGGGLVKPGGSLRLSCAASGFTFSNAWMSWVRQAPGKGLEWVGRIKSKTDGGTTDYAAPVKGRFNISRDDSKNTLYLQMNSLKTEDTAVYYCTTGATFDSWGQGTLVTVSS
VL: DIVMTQSPLSLPVTPGEPASISCRSSQSLLHSNGYKYLDWFLQKPGQSPQLLIYLGSIRASGVPDRFSGSGSGTDFTLKISRVEAEDVGVYYCMQALQTPWTFGQGTKVEIK
notes: also called XG2-262; AB-PTH-XG2-262
OD [3]: 0.25 OD450 | OD [4]: 2.11 OD450 | OD [5]: 1.46 OD450

B4: anti-PTH mAb 140 (antibody, IgG2, V domains shown)
VH: EVQLVESGGGLVKPGGSLTLSCAASGFTFSNAWLSWVRQAPGKGLEWVGRIKSKTDGGTTDYAAPVKGRFTVSRDDSKNTLFLQMNSLKTEDTAVYYCTTGATFDSWGQGTLVTVSS
VL: DIVMTQSPLSLPVTPGEPASISCRSSQSLLHSNGYKFLDWFLQKPGQSPQLLIYLGSYRASGVPDRFSGSGSGTDFTLTISRVEAEDVGVYYCMQALQTPWTFGQGTKVEIK
notes: also called AB-PTH-XG2-140; well 132G12
Kd [1]: 5.2 nM | Kd [2]: 0.8 nM

B5: anti-PTH mAb 057 (antibody, IgG2, V domains shown)
VH: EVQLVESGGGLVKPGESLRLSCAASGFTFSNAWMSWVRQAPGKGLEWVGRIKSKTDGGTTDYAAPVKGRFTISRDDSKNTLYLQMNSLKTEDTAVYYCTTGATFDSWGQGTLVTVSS
VL: DIVMTQSPLSLPVTPGEPASISCRSSQSLLYSNGYKYLDWYLQKPGQSPQLLIYLGSYRASGVPDRFSGSGSGTDFTLKISRVEAEDVGVYYCMQALQTPWTFGQGTKVEIK
notes: also called AB-PTH-XG2-057; well 119G2
Kd [1]: 1 nM | Kd [2]: 1 nM

B6: anti-PTH mAb 045 (antibody, IgG2, V domains shown)
VH: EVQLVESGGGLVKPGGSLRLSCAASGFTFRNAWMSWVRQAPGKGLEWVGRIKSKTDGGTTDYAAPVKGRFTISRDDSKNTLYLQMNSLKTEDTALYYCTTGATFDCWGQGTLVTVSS
VL: DIVMTQSPLSLPVTPGEPASISCRSSQSLLHSNGYNYLDWFLQKPGQSPQLLIYLGSYRASGVPDRFSGSGSGTDFTLKISRVEAEDVGIYYCMQARQTPWTFGQGTKVEIK
notes: also called AB-PTH-XG2-045; well 123B12
Kd [1]: 2 nM | Kd [2]: 0.5 nM

B7: anti-PTH mAb 225 (antibody, IgG2, V domains shown)
VH: not shown
VL: EIVMTQSPLNLPVTPGEPASISCRSSQSLLHSNGYKYLEWYLQKPGQSPQLLIYLGSNRASGVPDRFSGSGSGTDFTLKISRVEAEDVGVYYCMQTLQIPLTFGGGTKVEIK
notes: also called well 275A4
Kd [6]: 7.1 nM | Kd [1]: 0.6 nM | Kd [2]: 0.35 nM

B8: anti-PTH mAb 163 (antibody, IgG2, V domains shown)
VH: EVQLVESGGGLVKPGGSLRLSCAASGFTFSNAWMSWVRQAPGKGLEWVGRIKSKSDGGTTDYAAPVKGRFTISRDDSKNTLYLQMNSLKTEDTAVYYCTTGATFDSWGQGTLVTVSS
VL: DIVMTQSPLSLPVTPGEPASISCRSSQSLLHRNGYKYLDWYLQKPGQSPQLLIYLGSYRASGVPDRFSGSGSGTDSTLKISRVEAEDVGVYYCMQALQTPWTFGQGTKVEIK
notes: also called AB-PTH-XG2-163; well 130A1
Kd [6]: 41.1 nM | Kd [1]: 7.9 nM | Kd [2]: 3 nM

B9: anti-PTH mAb 124 (antibody, IgG2, V domains shown)
VH: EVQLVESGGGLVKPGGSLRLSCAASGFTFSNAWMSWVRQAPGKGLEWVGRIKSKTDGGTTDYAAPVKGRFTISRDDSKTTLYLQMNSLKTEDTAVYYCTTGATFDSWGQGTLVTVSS
VL: DIVMTQSPLSLPVTPGEPASISCRSSQSLLYSNGFKYLDWFLQKPGQSPQLLIYLGSYRASGVPDRFSGSGSGTDFTLKISRVEAEDVGVYYCMQALQTPWTFGQGTKVEIK
notes: also called AB-PTH-XG2-124; well 135H11
Kd [1]: 3.3 nM | Kd [2]: 0.5 nM

B10: anti-PTH mAb 214 (antibody, IgG2, V domains shown)
VH: EVQLVESGGGLVKPGGSLRLSCAASGSTFSNAWMSWVRQAPGKGLEWVGRIKSRTDGGTADYAAPVKGRFTISRDDLKKTLYLQMNSLKTEDTAVYYCTTYYFDSSGFPFDYWGQGTLVTVSS
VL: DIVMTQSPLYLPVTPGEPASISCRSSQSLLHSNGYKYLEWYLQKPGQSPQLLVYLGSNRASGVPDRFSGSGSGTDFTLKISRVEAEDVGVYYCMQALQTPLTFGGGTKVEIK
notes: also called AB-PTH-XG2-214; well 267D10
Kd [6]: 1.6 nM | Kd [1]: 0.4 nM | Kd [2]: 0.8 nM

B11: anti-PTH mAb 183 (antibody, human IgG2, V domains shown)
VH: EVQLVQSGAEVKKPGESLKISCKGSGYSFTSYWIGWVRQMPGKGLEWMGIISPGDSDTRYSPSFQGQVTISADKSISTAYLQWSSLKASDTAMYYCARQGDYVWGSYDSWGQGTLVTVSS
VL: DIVMTQTPLSLSVTPGRPASISCKSSQSLLDSDGKTYLYWYLQKPGQPPQLLIYEVSNRFSGVPDRFSGSGSGTDFTLRISRVEAEDVGIYFCMPSIHLWTFGQGTKVEIK
binding result [7]: no binding | binding result [8]: binds | binding result [9]: binds | binding result [10]: no binding | binding result [11]: binds | binding result [12]: no binding | binding result [13]: no binding | binding result [14]: no binding | binding result [15]: no binding | binding result [16]: no binding | Kd [17]: 0.06 nM | IC50 of calcium influx in UMR-106 cells (FLIPR) [18]: ~100 nM | KD High [19]: 0.065 nM | KD Low [19]: 0.014 nM | Kd [19]: 0.033 nM | KD High [20]: 0.018 nM | KD Low [20]: 0.005 nM | Kd [20]: 0.01 nM | KD High [21]: 5 nM | KD Low [21]: 2 nM | Kd [21]: 3 nM | KD High [22]: 0.039 nM | KD Low [22]: 0.012 nM | Kd [22]: 0.022 nM | IC50 (read off the curve) [23]: ~100 nM | binding result [24]: no binding (tested: 5 µg/mL PTHrp) | Kd [6]: 1 nM | Kd [1]: 0.1 nM | OD [3]: 3.26 OD450 | OD [25]: 1.95 OD450 | OD [4]: 0.62 OD450 | OD [5]: 1.4 OD450 | Kd [2]: 0.08 nM

B12: anti-PTH mAb 168g2/183k (antibody, V domains shown)
VH: EVQLVQSGAEVKKPGESLKISCKGSRYIFTNYWIGWVRQMPGKGLEWMGIIYPGDSDTRYSPSFQGQVTISADMSISTAYLQWSSLKASDTAMYYCARQGDYVWGSFDSWGQGTLVTVSS
VL: DIVMTQTPLSLSVTPGRPASISCKSSQSLLDSDGKTYLYWYLQKPGQPPQLLIYEVSNRFSGVPDRFSGSGSGTDFTLRISRVEAEDVGIYFCMPSIHLWTFGQGTKVEIK
Kd [1]: 0.64 nM | Kd [2]: 0.28 nM

B13: anti-PTH mAb 168 (antibody, human IgG2, V domains shown)
VH: EVQLVQSGAEVKKPGESLKISCKGSRYIFTNYWIGWVRQMPGKGLEWMGIIYPGDSDTRYSPSFQGQVTISADMSISTAYLQWSSLKASDTAMYYCARQGDYVWGSFDSWGQGTLVTVSS
VL: DIVMTQTPLSLSVTPGQPASISCKSSQSLLDSDGKTYLYWYLQKPGQPPQLLIYEVSNRFSGVPDRFSGSGSGTDFTLKISRVEAEDVGVYYCMQSIQLWTFGQGTKVEIK
notes: also called XG2-168; AB-PTH-XG2-168
Kd [1]: 2.6 nM | Kd [2]: 2.7 nM
